Experimental data: the supplement of paper PMC7877785
± gives the uncertainty stated by the source.

Test: self-splicing fitness, log relative to wild type (ln ratio); higher = more splicing; Tetrahymena group I intron in knt gene, E. coli kanamycin selection, DiMSum; sequences stand for … in CUCUCU…GGAGGGAAAAGUUAUCAGGCAUGCACCUGGUAGCUAGUCUUUAAACCAAUAGAUUGCAUCGGUUUAAAAGGCAAGACCGUCAAAUUGCGGGAAAGGGGUCAACAGCCGUUCAGUACCAAGUCUCAGGGGAAACUUUGAGAUGGCCUUGCAAAGGGUAUGGUAAUAAGCUGACGGACAUGGUCCUAACCACGCAGCCAAGUCCUAAGUCAACAGAUCUUCUGUUGAUAUGGAUGCAGUUCACAGACUAAAUGUCGGUCGGGGAAGAUGUAUUCUUCUCAUAAGAUAUAGUCGGACCUCUCCUUAAUGGGAGCUAGCGGAUGAAGUGAUGCAACACUGGAGCCGCUGGGAACUAAUUUGUAUGCGAAAGUAUAUUGAUUAGUUUUGGAGUACUCGUGGUCG
Summary of the method: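 The eight P1ex-region nucleotides of an intron in the knt kanamycin-resistance gene on pET-22b(+) were all randomised and the library put into E. coli BL21(DE3). Six replicate transformations were grown overnight at 37°C or 30°C on LB agar with or without 25 μg/mL kanamycin, together with 100 μg/mL carbenicillin, 50 μM IPTG and 0.2% rhamnose. Colonies were pooled and amplicon-sequenced on an Illumina HiSeq 2500. Fitness from DiMSum is the error-weighted combination of wild-type-normalised replicate fold changes, kanamycin over none.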

Sequence	self-splicing fitness (ln) (30 °C)	self-splicing fitness (ln) (37 °C)
GUACAGCAAUAUUACGCUAG	-1.88 ± 0.12	-0.374 ± 0.12
GUACAGCAAUAUUACGCUAU	-3.82 ± 0.29	-1.77 ± 0.2
GUACAGCAAUAUUACGCUUC	-2.54 ± 0.19	-2.69 ± 0.26
GUACAGCAAUAUUACGGCCC	-0.268 ± 0.088	-0.155 ± 0.11
GUACAGCAAUAUUACGGUAU	-4.07 ± 0.18	-2.45 ± 0.16
GUACAGCAAUAUUACGGUCU	-0.535 ± 0.084	-0.00413 ± 0.11
GUACAGCAAUAUUACGUACA	-3 ± 0.15	-1.63 ± 0.098
GUACAGCAAUAUUACGUAGG	-2.79 ± 0.15	-0.471 ± 0.12
GUACAGCAAUAUUACGUCAU	-1.7 ± 0.09	-1.13 ± 0.11
GUACAGCAAUAUUACGUUGC	-3.96 ± 0.13	-3.05 ± 0.14
GUACAGCAAUAUUACGUUUA	-2.62 ± 0.15	-1.89 ± 0.11
GUACAGCAAUAUUACGUUUG	-3.06 ± 0.13	-2.59 ± 0.17
GUAGAGCAAUAUUACGAAAU	-1 ± 0.15	-1.21 ± 0.17
GUAGAGCAAUAUUACGAACU	-1.19 ± 0.23	-0.867 ± 0.24
GUAGAGCAAUAUUACGAAGA	-3.65 ± 0.29	-2.22 ± 0.43
GUAGAGCAAUAUUACGCAAC	-1.79 ± 0.24	-0.94 ± 0.39
GUAGAGCAAUAUUACGCACA	-0.23 ± 0.14	-0.117 ± 0.14
GUAGAGCAAUAUUACGCAGU	-1.39 ± 0.11	-1.45 ± 0.17
GUAGAGCAAUAUUACGCGCA	-0.299 ± 0.1	0.0346 ± 0.13
GUAGAGCAAUAUUACGCGUC	-0.836 ± 0.18	-0.0736 ± 0.22
GUAGAGCAAUAUUACGGCGG	-1.86 ± 0.12	-1.99 ± 0.18
GUAGAGCAAUAUUACGGGAC	-1.46 ± 0.2	-1.13 ± 0.15
GUAGAGCAAUAUUACGGUGU	-1.82 ± 0.081	-1.23 ± 0.099
GUAGAGCAAUAUUACGGUUC	-1.84 ± 0.11	-0.825 ± 0.14
GUAGAGCAAUAUUACGGUUG	-2.62 ± 0.15	-1.13 ± 0.22

Sequence	self-splicing fitness (ln) (30 °C)	self-splicing fitness (ln) (37 °C)
GUAGAGCAAUAUUACGUAAG	-2.29 ± 0.26	-0.825 ± 0.27
GUAGAGCAAUAUUACGUACG	-1.92 ± 0.19	-1.35 ± 0.35
GUAGAGCAAUAUUACGUAUU	-2.43 ± 0.12	-1.42 ± 0.13
GUAGAGCAAUAUUACGUCCG	-2.26 ± 0.27	-2.49 ± 0.49
GUAGAGCAAUAUUACGUUGA	-2.98 ± 0.2	-0.879 ± 0.17
GUAUAGCAAUAUUACGAAAC		-1.02 ± 0.49
GUAUAGCAAUAUUACGAACC	-2.63 ± 0.43	-0.238 ± 0.23
GUAUAGCAAUAUUACGAAGA	-3.64 ± 0.47	-0.936 ± 0.23
GUAUAGCAAUAUUACGACAA	-0.741 ± 0.27	-1.34 ± 0.3
GUAUAGCAAUAUUACGACGU	-0.443 ± 0.069	0.436 ± 0.092
GUAUAGCAAUAUUACGACUA	-0.438 ± 0.21	0.00698 ± 0.23
GUAUAGCAAUAUUACGACUC	-0.23 ± 0.14	0.0743 ± 0.23
GUAUAGCAAUAUUACGAGGA	-2.45 ± 0.26	-2.66 ± 0.38
GUAUAGCAAUAUUACGAGGC	-2.1 ± 0.33	-2.18 ± 0.47
GUAUAGCAAUAUUACGAGGU	-2.99 ± 0.26	-0.619 ± 0.28
GUAUAGCAAUAUUACGAUGG	-3.43 ± 0.35	-0.958 ± 0.24
GUAUAGCAAUAUUACGCAAC	-2.53 ± 0.37	
GUAUAGCAAUAUUACGCACC	-1.85 ± 0.17	-1.66 ± 0.27
GUAUAGCAAUAUUACGCAGU		-2.33 ± 0.37
GUAUAGCAAUAUUACGCAUC	-2.15 ± 0.17	-0.982 ± 0.13
GUAUAGCAAUAUUACGCCGG	-2.45 ± 0.37	-1.59 ± 0.35
GUAUAGCAAUAUUACGCGUG	-2.13 ± 0.18	-0.201 ± 0.14
GUAUAGCAAUAUUACGCUCA		-0.615 ± 0.36
GUAUAGCAAUAUUACGGAGU	-3.8 ± 0.3	-3.49 ± 0.29
GUAUAGCAAUAUUACGGCCU	-1.29 ± 0.12	-0.582 ± 0.16

Sequence	self-splicing fitness (ln) (30 °C)	self-splicing fitness (ln) (37 °C)
GUAUAGCAAUAUUACGGUAA	-2.59 ± 0.23	-1.24 ± 0.15
GUAUAGCAAUAUUACGGUAC		-2.25 ± 0.33
GUAUAGCAAUAUUACGUAAG	-1.48 ± 0.13	-0.567 ± 0.14
GUAUAGCAAUAUUACGUUCG	-2.09 ± 0.21	-1.53 ± 0.19
GUAUAGCAAUAUUACGUUUA	-2.74 ± 0.19	-1.52 ± 0.17
GUCAAGCAAUAUUACGAAAU	-2.14 ± 0.13	-0.595 ± 0.12
GUCAAGCAAUAUUACGAACA	-2.25 ± 0.22	-1.24 ± 0.19
GUCAAGCAAUAUUACGACUA	-3.5 ± 0.18	-2.03 ± 0.12
GUCAAGCAAUAUUACGCAGU	-3.31 ± 0.33	-1.16 ± 0.19
GUCAAGCAAUAUUACGCCGU	-2.32 ± 0.31	-0.783 ± 0.27
GUCAAGCAAUAUUACGCGAA	-1.88 ± 0.085	-0.888 ± 0.091
GUCAAGCAAUAUUACGCGCU	-1.88 ± 0.092	-0.425 ± 0.087
GUCAAGCAAUAUUACGCUGA	-5.3 ± 0.45	-3.74 ± 0.42
GUCAAGCAAUAUUACGCUUC	-4.61 ± 0.42	-2.4 ± 0.25
GUCAAGCAAUAUUACGGCUG	-4 ± 0.3	
GUCAAGCAAUAUUACGGCUU	-4.12 ± 0.35	-2.74 ± 0.31
GUCAAGCAAUAUUACGGGCU	-4.5 ± 0.25	-4.77 ± 0.31
GUCAAGCAAUAUUACGGGUC	-3.45 ± 0.19	-2.16 ± 0.18
GUCAAGCAAUAUUACGUCCC	-1.22 ± 0.29	-0.2 ± 0.26
GUCAAGCAAUAUUACGUGAA	-1.01 ± 0.072	0.556 ± 0.083
GUCAAGCAAUAUUACGUGGG	-3 ± 0.13	-2.23 ± 0.2
GUCAAGCAAUAUUACGUUCC	-1.5 ± 0.11	-0.728 ± 0.13
GUCCAGCAAUAUUACGACCG	-2.21 ± 0.5	
GUCCAGCAAUAUUACGAGAA	-0.724 ± 0.14	-0.763 ± 0.14
GUCCAGCAAUAUUACGAGCA	-0.945 ± 0.12	-1.08 ± 0.15

Sequence	self-splicing fitness (ln) (30 °C)	self-splicing fitness (ln) (37 °C)
GUCCAGCAAUAUUACGAGCU		-1.96 ± 0.31
GUCCAGCAAUAUUACGCACC	-2 ± 0.17	-0.64 ± 0.17
GUCCAGCAAUAUUACGCACU	-1.58 ± 0.082	0.818 ± 0.11
GUCCAGCAAUAUUACGCGCC	-1.29 ± 0.11	-0.848 ± 0.14
GUCCAGCAAUAUUACGCGUA	-0.0475 ± 0.068	0.185 ± 0.07
GUCCAGCAAUAUUACGCUUU	-0.441 ± 0.06	0.678 ± 0.076
GUCCAGCAAUAUUACGGAAC	-1.88 ± 0.12	-0.802 ± 0.11
GUCCAGCAAUAUUACGGCGC	-0.166 ± 0.15	0.208 ± 0.22
GUCCAGCAAUAUUACGGCGG	-4.63 ± 0.42	-1.4 ± 0.29
GUCCAGCAAUAUUACGGGUC	-1.73 ± 0.13	-1.7 ± 0.16
GUCCAGCAAUAUUACGGUAA	-0.283 ± 0.086	0.647 ± 0.079
GUCCAGCAAUAUUACGUCCA	-1.12 ± 0.077	-0.579 ± 0.079
GUCCAGCAAUAUUACGUGUG	-1.14 ± 0.064	-0.529 ± 0.068
GUCCAGCAAUAUUACGUUAG	-3.15 ± 0.11	-1.19 ± 0.095
GUCCAGCAAUAUUACGUUAU	-0.827 ± 0.058	0.329 ± 0.07
GUCGAGCAAUAUUACGAGGG		-1.04 ± 0.21
GUCGAGCAAUAUUACGAUGA	-1.6 ± 0.15	-0.827 ± 0.14
GUCGAGCAAUAUUACGCAGG		-3.05 ± 0.38
GUCGAGCAAUAUUACGCCCC	-1.19 ± 0.37	-1.01 ± 0.31
GUCGAGCAAUAUUACGCCGG		-1.99 ± 0.41
GUCGAGCAAUAUUACGCCGU	-1.32 ± 0.3	-0.299 ± 0.38
GUCGAGCAAUAUUACGCCUC	-1.51 ± 0.23	-0.868 ± 0.33
GUCGAGCAAUAUUACGGGCA	-2.65 ± 0.4	-0.9 ± 0.18
